# Results taken from patent US20240200046.
# Test system: T1, MIT 11-12x.40 meganuclease (MIT 11-12) (artificial (I-CreI derived, Chlamydomonas reinhardtii))
# T1 sequence: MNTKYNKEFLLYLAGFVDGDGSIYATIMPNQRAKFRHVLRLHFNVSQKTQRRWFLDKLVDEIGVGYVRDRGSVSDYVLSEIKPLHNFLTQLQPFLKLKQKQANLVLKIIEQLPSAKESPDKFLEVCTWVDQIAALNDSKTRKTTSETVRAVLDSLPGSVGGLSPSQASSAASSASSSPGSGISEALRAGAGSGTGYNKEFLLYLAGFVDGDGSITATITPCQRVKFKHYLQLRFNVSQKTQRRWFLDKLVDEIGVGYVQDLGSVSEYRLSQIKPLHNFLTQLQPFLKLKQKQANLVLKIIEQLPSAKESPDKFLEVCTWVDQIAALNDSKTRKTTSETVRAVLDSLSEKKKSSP
# Experiment: cell_activity
# Settings: CHO split-GFP recombination assay, 48 h
substance,measurement,value
wild-type mtDNA tRNA-Ala target site,activity,< 5 % GFP+ cells
